From patent publication US20030049702A1

Tests used:
[1] = target: GST-DR4 (residues 269-468) (UniProt O00220); experiment: GST pull-down on glutathione-Sepharose, immunoblot against input lane
[2] = target: GST-DR4 (residues 269-468) (UniProt O00220); experiment: Scatchard analysis: DAP3-His6 at 0.1-1 µM with 1.0 µg GST-DR4 on glutathione-Sepharose, free and bound DAP3 by immunoblot densitometry

Chain of GST-DR4 (residues 269-468) (O00220 269-468, form in doubt): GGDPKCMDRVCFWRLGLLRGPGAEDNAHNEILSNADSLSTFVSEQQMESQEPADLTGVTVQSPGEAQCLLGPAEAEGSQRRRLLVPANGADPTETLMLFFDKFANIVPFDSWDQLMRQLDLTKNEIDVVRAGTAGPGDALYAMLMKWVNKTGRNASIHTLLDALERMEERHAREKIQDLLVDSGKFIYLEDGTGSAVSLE

percent of input bound [1]: 10 to 20%
Kd [2]: 16 nM
Substance: DAP3-His6
